Experimental data published in the supplement of paper PMC9233669.
This sample holds only a part of the variants without activity.

Test system: biotinyl-Phe-oxazolone
Assay: self-aminoacylation, catalytic enhancement (BFO) (fold over background); higher = more active; k-Seq, kA / k0A0; sequences stand for … in GGGAAUGGAUCCACAUCUACGAAUUC…UUCACUGCAGACUUGACGAAGCUG
Outline: (§1)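 Catalytic enhancement equals the median kA over the uncatalyzed rate, the latter read from the low-activity peak of a bimodal Gaussian fit. Values of kA came from fitting each sequence's fraction reacted to a pseudo-first-order model, with 1000 bootstraps. Reacted RNA was captured with streptavidin and quantified by triplicate qPCR and Illumina sequencing after 90 minutes at room temperature with 2–1250 μM biotinyl-aminoacyl-oxazolone and 0.43 μM mutagenized RNA pools bearing a 21-nt variable region.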

| Sequence | self-aminoacylation |
| --- | --- |
| AAAUUUGCUAAUAGUCGGAAG [Fam3.1 aminoacylation ribozyme variant] | 2.57 |
| AAGAUUGCUAACAGUCGCAAG [Fam3.1 aminoacylation ribozyme variant] | 2.49 |
| AAGAUUGCUAAUAGUCGCAAC [Fam3.1 aminoacylation ribozyme variant] | 2.08 |
| AAGAUUGCUGAUAGUCGCAAG [Fam3.1 aminoacylation ribozyme variant] | 2.57 |
| AAGUCUGCUAAUAGUCGCAAA [Fam3.1 aminoacylation ribozyme variant] | 2.14 |
| AAGUGUGCUAAUAGUGGCAAG [Fam3.1 aminoacylation ribozyme variant] | 2.86 |
| AAGUUAGCUAAUAGUCGCUAG [Fam3.1 aminoacylation ribozyme variant] | 2.36 |
| AAGUUAGUUAAUAGUCGCAAG [Fam3.1 aminoacylation ribozyme variant] | 2.7 |
| AAGUUGGCUAAUAGUCCCAAG [Fam3.1 aminoacylation ribozyme variant] | 2.06 |
| AAGUUUCAUAAUAGUCGCAAG [Fam3.1 aminoacylation ribozyme variant] | 2.19 |
| AAGUUUCCUAAUAGUCGCCAG [Fam3.1 aminoacylation ribozyme variant] | 2.94 |
| AAGUUUCCUACUAGUCGCAAG [Fam3.1 aminoacylation ribozyme variant] | 2.54 |
| AAGUUUCCUUAUAGUCGCAAG [Fam3.1 aminoacylation ribozyme variant] | 2.75 |
| AAGUUUGAUAAUAGUCGCAAU [Fam3.1 aminoacylation ribozyme variant] | 2.12 |
| AAGUUUGCGAAUAGCCGCAAG [Fam3.1 aminoacylation ribozyme variant] | 4.03 |
| AAGUUUGCGAAUAGGCGCAAG [Fam3.1 aminoacylation ribozyme variant] | 9.76 |
| AAGUUUGCUAACAGUCGGAAG [Fam3.1 aminoacylation ribozyme variant] | 6.87 |
| AAGUUUGCUAAUAGCCGCAAU [Fam3.1 aminoacylation ribozyme variant] | 2.22 |
| AAGUUUGCUAAUAGUCAAAAG [Fam3.1 aminoacylation ribozyme variant] | 3.26 |
| AAGUUUGCUAAUAGUUGCGAG [Fam3.1 aminoacylation ribozyme variant] | 2.61 |
| AAGUUUGCUAAUGGUCGCAAU [Fam3.1 aminoacylation ribozyme variant] | 3.15 |
| AAGUUUGCUGAUAGUCGCAGG [Fam3.1 aminoacylation ribozyme variant] | 2.42 |

| Sequence | self-aminoacylation |
| --- | --- |
| AAGUUUGGUAAUAGUCGCGAG [Fam3.1 aminoacylation ribozyme variant] | 2.51 |
| AAGUUUGUUCAUAGUCGCAAG [Fam3.1 aminoacylation ribozyme variant] | 2.01 |
| AAGUUUUCAAAUAGUCGCAAG [Fam3.1 aminoacylation ribozyme variant] | 2.08 |
| AAGUUUUCUAAUAGUCGAAAG [Fam3.1 aminoacylation ribozyme variant] | 2 |
| AAGUUUUCUAAUAGUCGCUAG [Fam3.1 aminoacylation ribozyme variant] | 2.43 |
| AAGUUUUCUAAUAGUCGUAAG [Fam3.1 aminoacylation ribozyme variant] | 2.29 |
| AAGUUUUCUAAUAGUUGCAAG [Fam3.1 aminoacylation ribozyme variant] | 2.94 |
| AAUCACCUAGGUCAUCGUGUG [Fam2.2 aminoacylation ribozyme variant] | 5.37 |
| AAUUUUGCUAAUAAUCGCAAG [Fam3.1 aminoacylation ribozyme variant] | 2.03 |
| ACGUUUGCUAAUAGUCCCAAG [Fam3.1 aminoacylation ribozyme variant] | 2 |
| AGUACCCUGGUCAUCGAGUGC [Fam2.1 aminoacylation ribozyme variant] | 2.36 |
| AUGCACCUAGGUCAUCGGGUC [Fam2.2 aminoacylation ribozyme variant] | 7.15 |
| AUGUUUGCGAAUAGUCGCAAG [Fam3.1 aminoacylation ribozyme variant] | 2.47 |
| AUGUUUGUUAAUAGUCGCAAG [Fam3.1 aminoacylation ribozyme variant] | 2.31 |
| AUUACCCUGGCCAUCGACUGA [Fam2.1 aminoacylation ribozyme variant] | 2.83 |
| AUUACCCUGGUCAUCAAGUGU [Fam2.1 aminoacylation ribozyme variant] | 2.34 |
| AUUAGCUUGGUCAUCGAGUGA [Fam2.1 aminoacylation ribozyme variant] | 2.2 |
| AUUCACCAAGGUCAUCGGGUC [Fam2.2 aminoacylation ribozyme variant] | 3.27 |
| AUUCACCUAGGUCAUCAUGUG [Fam2.2 aminoacylation ribozyme variant] | 2.12 |
| AUUCACCUAGGUCGUCGGGUU [Fam2.2 aminoacylation ribozyme variant] | 3.1 |
| AUUCACCUAGGUUAUCGUGUG [Fam2.2 aminoacylation ribozyme variant] | 2.6 |
| AUUCACCUCGGUCAUCGUGUG [Fam2.2 aminoacylation ribozyme variant] | 3.14 |

| Sequence | self-aminoacylation |
| --- | --- |
| AUUCACCUGGGUCAUCGGGUC [Fam2.2 aminoacylation ribozyme variant] | 5.84 |
| AUUCACCUGGGUCAUCGUGUG [Fam2.2 aminoacylation ribozyme variant] | 4.81 |
| AUUCUCCUAGGUCAUCGGUUG [Fam2.2 aminoacylation ribozyme variant] | 6.63 |
| AUUGCCCUGGUCGUCGAGUGA [Fam2.1 aminoacylation ribozyme variant] | 8.62 |
| AUUUACCUAGGUCAUCGGCUG [Fam2.2 aminoacylation ribozyme variant] | 2.16 |
| CAGUUUGCUAAGAGUCGCAAG [Fam3.1 aminoacylation ribozyme variant] | 2.85 |
| CAGUUUGCUAAUAGUCCCAAG [Fam3.1 aminoacylation ribozyme variant] | 2.32 |
| CAGUUUGCUAAUAGUCGCAAC [Fam3.1 aminoacylation ribozyme variant] | 2.78 |
| CAGUUUGCUAAUAGUCGCAGG [Fam3.1 aminoacylation ribozyme variant] | 3.45 |
| CAGUUUUCUAAUAGUCGCAAG [Fam3.1 aminoacylation ribozyme variant] | 2.91 |
| CCAAACUUCGAGCAAUCGGUC [Fam1B.1 aminoacylation ribozyme variant] | 2.34 |
| CUACUCCAAUCAAUCGGUCUG [Fam1A.1 aminoacylation ribozyme variant] | 2.36 |
| CUACUGCAAACACUCGGUCUG [Fam1A.1 aminoacylation ribozyme variant] | 5.64 |
| CUACUUCAAACAAGCGGUCGG [Fam1A.1 aminoacylation ribozyme variant] | 3.68 |
| CUACUUCAAACCAUCGGUCGG [Fam1A.1 aminoacylation ribozyme variant] | 3.15 |
| CUAGUUCAAACAUUCGGUCUG [Fam1A.1 aminoacylation ribozyme variant] | 6.01 |
| CUAGUUCAGACAAUCGGUCUG [Fam1A.1 aminoacylation ribozyme variant] | 2.61 |
| CUGCUUCAAACAAUCGUUCUG [Fam1A.1 aminoacylation ribozyme variant] | 2.08 |
| GAGUUUGCUGAUAGUCGCAAG [Fam3.1 aminoacylation ribozyme variant] | 3.71 |
| GUUACCCUGGUCAUCGAUUGA [Fam2.1 aminoacylation ribozyme variant] | 2.77 |
| UUACUUCAAACAAGCGGUCUG [Fam1A.1 aminoacylation ribozyme variant] | 6.3 |
| UUACUUCAAACAUUCGGUCUG [Fam1A.1 aminoacylation ribozyme variant] | 2.03 |

Test system: biotinyl-Trp-oxazolone
Assay: self-aminoacylation, catalytic enhancement (BWO) (fold over background); higher = more active; k-Seq, kA / k0A0; sequences stand for … in GGGAAUGGAUCCACAUCUACGAAUUC…UUCACUGCAGACUUGACGAAGCUG
Outline: as §1

| Sequence | self-aminoacylation |
| --- | --- |
| AAGAUUGCUAAUAGUCGCCAG [Fam3.1 aminoacylation ribozyme variant] | 2.02 |
| AAGAUUGCUAAUUGUCGCAAG [Fam3.1 aminoacylation ribozyme variant] | 3.92 |
| AAGUGUGCUAAUAGUCGCAAU [Fam3.1 aminoacylation ribozyme variant] | 2.01 |
| AAGUGUGCUAAUAGUCGCAGG [Fam3.1 aminoacylation ribozyme variant] | 2.17 |
| AAGUGUGCUAAUCGUCGCAAG [Fam3.1 aminoacylation ribozyme variant] | 2.44 |
| AAGUUAGCUAGUAGUCGCAAG [Fam3.1 aminoacylation ribozyme variant] | 2.01 |
| AAGUUAGGUAAUAGUCGCAAG [Fam3.1 aminoacylation ribozyme variant] | 2.11 |
| AAGUUUGCUAUUAGUCGCAGG [Fam3.1 aminoacylation ribozyme variant] | 2.01 |
| AUUACCCGGGUCAUCGAGUUA [Fam2.1 aminoacylation ribozyme variant] | 2.23 |
| AUUACCCUGGUCAUUGAGUAA [Fam2.1 aminoacylation ribozyme variant] | 2.02 |
| CCACACUCCGAGCAAUCGGUC [Fam1B.1 aminoacylation ribozyme variant] | 2.37 |
| CCACACUGCAAGCCAUCGGUC [Fam1B.1 aminoacylation ribozyme variant] | 2.76 |
